Results taken from US20260193326A1.
Substitutions are numbered along the chain they refer to.

B1: A4-D7 (bispecific antibody)
chain: VQLQESGGGLVQTGGSLRLSCAASGRAFSLNTMGWYRQAPGKWRELVATVTRGGSTNYAGSVKGRFTISRDNAKNTVYLQMNNLRPEDTAVYYCHVDEVRESSWTTSNLWGQGTQVTVSSGGGGSGGGGSGGGGSVQLQESGGGLVQPGGSLRLSCAASGSIFTINSMGWYRQAPGKWRELVATVTRGGNTNYANSVKGRFTISRDNAKNTVYLQMNTLRPEDTAVYYCHLDEVRDSSWTTSNLWGQGTQVTVSSGGGGSGGGGSGGGGSVQLQESGGGLVQPGGSLRLSCAASGSIFSINSMGWYRQAPGKWRELVATVTRGGSTNYANSVKGRFTISRDNAKNTVYLQMNTLRPEDTAVYYCHLDEVRDSSWTTSNLWGQGTQVTVSSGGGGSGGGGSGGGGSVQLQESGGGLVQTGGSLRLSCAASGRAFSLNTMGWYRQAPGKWRELVATVTRGGSTNYAGSVKGRFTISRDNAKNTVYLQMNNLRPEDTAVYYCHVDEVRESSWTTSNLWGQGTQVTVSS
B2: A4-D9 (bispecific antibody)
chain: VQLQESGGGLVHSGGSLRLSCAASGSMFSLNTMGWYRQAPGKQRELVATITRGGGTSYADSVKGRFTISRDNAKNTVYLQMNSLRPEDTAVYYCHVDELRQSSWTTSNLWGQGTQVTVSSGGGGSGGGGSGGGGSVQLQESGGGLVQPGGSLRLSCAASGSRFSLNTMGWYRQAPGKQRELVATVTRGGSTNYADFVKGRFTISRDNAKNTVYLQMNSLRPEDTAVYYCHVDELRESGWTTSNLWGQGTQVTVSSGGGGSGGGGSGGGGSVQLQESGGGLVQPGGSLRLSCAASGSRFSLNTMGWYRQAPGKQRELVATVTRGGSTNYADFVKGRFTISRDNAKNTVYLQMNSLRPEDTAVYYCHVDELRESGWTTSNLWGQGTQVTVSSGGGGSGGGGSGGGGSVQLQESGGGLVQTGGSLRLSCAASGRAFSLNTMGWYRQAPGKWRELVATVTRGGSTNYAGSVKGRFTISRDNAKNTVYLQMNNLRPEDTAVYYCHVDEVRESSWTTSNLWGQGTQVTVSS
B3: A4-D6 (bispecific antibody)
chain: VQLQESGGGLVQTGGSLRLSCAASGRAFSLNTMGWYRQAPGKWRELVATVTRGGSTNYAGSVKGRFTISRDNAKNTVYLQMNNLRPEDTAVYYCHVDEVRESSWTTSNLWGQGTQVTVSSGGGGSGGGGSGGGGSVQLQESGGGLVQTGGSLRLSCAASGRAFSLNTMGWYRQAPGKWRELVATVTRGGSTNYAGSVKGRFTISRDNAKNTVYLQMNNLRPEDTAVYYCHVDEVRESSWTTSNLWGQGTQVTVSSGGGGSGGGGSGGGGSVQLQESGGGLVQPGGSLRLSCAASGSIFTINSMGWYRQAPGKWRELVATVTRGGNTNYANSVKGRFTISRDNAKNTVYLQMNTLRPEDTAVYYCHLDEVRDSSWTTSNLWGQGTQVTVSSGGGGSGGGGSGGGGSVQLQESGGGLVQPGGSLRLSCAASGSIFSINSMGWYRQAPGKWRELVATVTRGGSTNYANSVKGRFTISRDNAKNTVYLQMNTLRPEDTAVYYCHLDEVRDSSWTTSNLWGQGTQVTVSS
B4: A4-D5 (protein)
chain: VQLQESGGGLVQPGGSLRLSCVASGSSFSINTMGWYRRAPGKQRELVATVTRDGSTNYANSVKGRFTISRDNAKNTVYLQMNSLRPEDTAVYYCHVDEVRQSSWTTSNLWGQGTQVTVSSGGGGSGGGGSGGGGSVQLQESGGGLVQPGGSLRLSCVASGSSFSINTMGWYRRAPGKQRELVATVTRDGSTNYANSVKGRFTISRDNAKNTVYLQMNSLRPEDTAVYYCHVDEVRQSSWTTSNLWGQGTQVTVSSGGGGSGGGGSGGGGSVQLQESGGGLVQPGGSLRLSCVASGSSFSINTMGWYRQAPGKQRELVATVTRDGSTNYANSVKGRFTISRDNAKNTVYLQMNSLRPEDTAVYYCHVDEVRQSSWTTSNLWGQGTQVTVSSGGGGSGGGGSGGGGSVQLQESGGGLVQPGGSLRLSCVASGSSFSINTMGWYRRAPGKQRELVATVTRDGSTNYANSVKGRFTISRDNAKNTVYLQMNSLRPEDTAVYYCHVDEVRQSSWTTSNLWGQGTQVTVSS
B5: A4-D12 (protein)
chain: VQLQESGGGLVQPGGSLRLSCAASGSIFSINTMGWYRQAPGKQRELVAAVTRGGSTNYADSVKGRFTISRDNAKNTVYLQMNSLRPEDTAVYYCHVDEVRQSSWTTSNLWGQGTQVTVSSGGGGSGGGGSGGGGSVQLQESGGGLAQAGGSLRLSCAASGRGFSINTMGWYRQAPGKQRELVAAVTRGGTTNYADSVKGRFTISRDNAKNTVYLQMNSLRPEDTAVYYCHVDEVRQSSWTTSNLWGQGTQVTVSSGGGGSGGGGSGGGGSVQLQESGGGLVQPGGSLRLSCAASGRAFSINTMGWYRQAPGKQRELVATVTRDGSTNYAGSVKGRFTISRDNAKNTVYLQMNSLRPEDTAVYYCHVDEVRQSSWTTSNLWGQGTQVTVSSGGGGSGGGGSGGGGSVQLQESGGGLVQPGGSLRLSCAASGSIFIINTMGWYRRAPGKQRELVAAVTRGGSTNYADSVKGRFTISRDNAKNTVYLQMNSLRPEDTAVYYCHVDEVRQSSWTTSNLWGQGTQVTVSS
B6: A4-D2 (VHH)
chain: VQLQESGGGLVQAGGSLRLSCAASGRGFSINTMGWYRQAPGKQRELVAAVTRGGTTNYADSVKGRFTISRDNAKNTVYLQMNSLRPEDTAVYYCHVDEVRQSSWTTSNLWGQGTQVTVSSGGGGSGGGGSGGGGSVQLQESGGGLVQAGGSLRLSCAASGRGFSINTMGWYRQAPGKQRELVAAVTRGGTTNYADSVKGRFTISRDNAKNTVYLQMNSLRPEDTAVYYCHVDEVRQSSWTTSNLWGQGTQVTVSSGGGGSGGGGSGGGGSVQLQESGGGLVQAGGSLRLSCAASGRGFSINTMGWYRQAPGKQRELVAAVTRGGTTNYADSVKGRFTISRDNAKNTVYLQMNSLRPEDTAVYYCHVDEVRQSSWTTSNLWGQGTQVTVSSGGGGSGGGGSGGGGSVQLQESGGGLVQAGGSLRLSCAASGRGFSINTMGWYRQAPGKQRELVAAVTRGGTTNYADSVKGRFTISRDNAKNTVYLQMNSLRPEDTAVYYCHVDEVRQSSWTTSNLWGQGTQVTVSS
B7: A4-D4 (VHH)
chain: B6 chain with V11A, A148P, V281A, V416A
B8: A4-D3 (VHH)
chain: B6 chain with V11A, V146A, V281A, A418P
B9: A4-D10 (protein)
chain: VQLQESGGGLAQAGGSLRLSCAASGRGFSINTMGWYRQAPGKQRELVAAVTRGGTTNYADSVKGRFTISRDNAKNTVYLQMNSLRPEDTAVYYCHVDEVRQSSWTTSNLWGQGTQVTVSSGGGGSGGGGSGGGGSVQLQESGGGLVQPGGSLRLSCAASGRAFSINTMGWYRQAPGKQRELVATVTRDGSTNYAGSVKGRFTISRDNAKNTVYLQMNSLRPEDTAVYYCHVDEVRQSSWTTSNLWGQGTQVTVSSGGGGSGGGGSGGGGSVQLQESGGGLVQPGGSLRLSCAASGSIFIINTMGWYRRAPGKQRELVAAVTRGGSTNYADSVKGRFTISRDNAKNTVYLQMNSLRPEDTAVYYCHVDEVRQSSWTTSNLWGQGTQVTVSSGGGGSGGGGSGGGGSVQLQESGGGLVQPGGSLRLSCAASGSIFSINTMGWYRQAPGKQRELVAAVTRGGSTNYADSVKGRFTISRDNAKNTVYLQMNSLRPEDTAVYYCHVDEVRQSSWTTSNLWGQGTQVTVSS
B10: A4-D11 (protein)
chain: B9 chain with A11V, A13P, R161S, A162I, T184A, D188G, G195D, I432S, S434V
B11: A4-D8 (bispecific antibody)
chain: VQLQESGGGLVQPGGSLRLSCAASGSRFSLNTMGWYRQAPGKQRELVATVTRGGSTNYADSVKGRFTISRDNAKNTVYLQMNSLRPEDTAVYYCHVDELRESGWTTSNLWGQGTQVTVSSGGGGSGGGGSGGGGSVQLQESGGGLVQPGGSLRLSCAASGSRFSLNTMGWYRQAPGKQRELVATVTRGGSTNYADFVKGRFTISRDNAKNTVYLQMNSLRPEDTAVYYCHVDELRESGWTTSNLWGQGTQVTVSSGGGGSGGGGSGGGGSVQLQESGGGLVHSGGSLRLSCAASGSMFSLNTMGWYRQAPGKQRELVATITRGGGTSYADSVKGRFTISRDNAKNTVYLQMNSLRPEDTAVYYCHVDELRQSSWTTSNLWGQGTQVTVSSGGGGSGGGGSGGGGSVQLQESGGGLVQPGGSLRLSCAASGSRFSLNTMGWYRQAPGKQRELVATVTRGGSTNYADFVKGRFTISRDNAKNTVYLQMNSLRPEDTAVYYCHVDELRESGWTTSNLWGQGTQVTVSS

Tests used:
Assay in all cases: SPR, AAV on CM5 chip
[1] = biological target: AAV5 (adeno-associated virus serotype 5)
[2] = biological target: AAV8 (adeno-associated virus serotype 8)
[3] = biological target: AAV9 (adeno-associated virus serotype 9)

| Binder | Kd [1] [nM] | koff [1] [s⁻¹] | kon [1] [M⁻¹ s⁻¹] | Kd [2] [nM] | koff [2] [s⁻¹] | kon [2] [M⁻¹ s⁻¹] | Kd [3] [nM] | koff [3] [s⁻¹] | kon [3] [M⁻¹ s⁻¹] |
| --- | --- | --- | --- | --- | --- | --- | --- | --- | --- |
| B1 | 0.216 | 4.9e-06 | 22700 | 1.41 | 1.79e-05 | 12700 | 0.658 | 9.4e-06 | 14300 |
| B2 | 0.1 | 2.3e-06 | 22900 | 0.318 | 9.9e-06 | 31100 | 0.745 | 1.94e-05 | 26000 |
| B3 | 0.273 | 1.18e-05 | 43300 | 1.02 | 1.63e-05 | 16000 | 0.155 | 3.4e-06 | 21900 |
| B4 | 0.318 | 1.34e-05 | 42100 | 0.0836 | 5e-06 | 59800 | 0.117 | 4.3e-06 | 36900 |
| B5 | 0.44 | 1.7e-05 | 38600 | 0.262 | 6.5e-06 | 24800 | 0.0555 | 3e-06 | 54000 |
| B6 | 0.0996 | 5.7e-06 | 57200 | 0.0821 | 3.6e-06 | 43900 | 0.304 | 9e-06 | 29600 |
| B7 | 0.657 | 1.73e-05 | 26300 | 0.0802 | 1.7e-06 | 21200 | 0.073 | 2.1e-06 | 28800 |
| B8 | 0.209 | 3.6e-06 | 17300 | 0.0363 | 1.5e-06 | 41400 | 0.0707 | 3.2e-06 | 45300 |
| B9 | 0.481 | 8.3e-06 | 17300 | 0.542 | 1.66e-05 | 30700 | 0.0611 | 1.9e-06 | 31100 |
| B10 | 1.15 | 1.4e-05 | 12200 | 0.319 | 1.5e-05 | 47000 | 0.181 | 4.8e-06 | 26500 |
| B11 | 1.49 | 1.96e-05 | 13200 | 0.228 | 1.1e-05 | 48200 | 0.313 | 1.32e-05 | 42200 |
